# From patent US20220235143A1 (Memorial Sloan Kettering, published 2022)
# Residue numbers refer to the chain shown, from its start. Where no end group is shown, it is not given here.
# T1: MUC16 peptide-2 glycopeptide (human, also: glycopeptide, glycan and its site not given here)
# T1 peptide: TLDRSSVLVDGYSPNRNE
# T2: biotinylated MUC16 peptide-2 (human, also: biotinylated (position not given here))
# T2 construct: Captured on streptavidin sensor (SPR) or streptavidin magnetic beads (radioligand assays); also called biotinylated peptide-2
# T2 peptide: TLDRSSVLVDGYSPNRNE
# T3: MUC16 c114 expressed on transfected SKOV3 cells (SKOV3^c114) (human)
# T3 construct: also called deltaMUC16c114; c114 peptide
# T3 chain: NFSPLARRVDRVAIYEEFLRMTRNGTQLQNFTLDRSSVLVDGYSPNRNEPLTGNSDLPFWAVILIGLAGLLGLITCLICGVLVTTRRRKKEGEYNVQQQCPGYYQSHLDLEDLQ
# B1: 18C6 H1L1 humanized antibody (antibody, human IgG1, kappa, V domains shown)
# VH: QVTLKESGPGILQPTQTLTLTCTFSGFSLSTVGMGVGWSRQPSGKGLEWLAHIWWDDEDKYYNPALKSRLTITKDTSKNQVFLKITNVDTADTATYYCTRIGTAQATDALDYWGQGTLVTVSS
# VL: DIVMTQSAPSVPVTPGESVSISCRSSKSLLHSNGNTYLYWFLQKPGQSPQRLIYYMSNLASGVPDRFSGRGSGTDFTLKISRVEAEDVGVYYCMQSLEYPLTFGGGTKLEIKR
# notes: also called H1L1 humanized 18C6 antibody
# B2: 18C6 H1L2 humanized antibody (antibody, human IgG1, kappa, V domains shown)
# VH: B1 VH
# VL: B1 VL with P9L, V11L, S18P, R70S
# B3: 18C6 H2L1 humanized antibody (antibody, human IgG1, kappa, V domains shown)
# VH: B1 VH with G10T, I11L, L12V, Q13K, F82V, K84T, T90P, A91V
# VL: B1 VL
# B4: 18C6 H2L2 humanized antibody (antibody, human IgG1, kappa, V domains shown)
# VH: B1 VH with G10T, I11L, L12V, Q13K, F82V, K84T, T90P, A91V
# VL: B1 VL with P9L, V11L, S18P, R70S
# B5: 4H11-H1L1 hIgG (antibody)
# heavy: not shown
# light: DIELTQSPSSLAVSAGERVTMNCKSSQSLLNSRTRKNQLAWYQQKPGQSPELLIYWASTRQSGVPDRFSGSGSGTDFTLTISSVQAEDVAVYYCQQSYNLLTFGPGTKLEIKRTVAAPSVFIFPPSDEQLKSGTASVVCLLNNFYPREAKVQWKVDNALQSGNSQESVTEQDSKDSTYSLSSTLTLSKADYEKHKVYACEVTHQGLSSPVTKSFNRGEC
# notes: also called humanized 4H11 H1L1
# B6: 4H11-H1L2 hIgG (antibody)
# heavy: not shown
# light: B5 light with E3V, S9D, A15L, P105Q
# notes: also called H1L2 humanized 4H11 antibody
# B7: 4H11-H2L2 hIgG (antibody)
# heavy: not shown
# light: B5 light with E3V, S9D, A15L, P105Q
# B8: 4H11-H2L1 hIgG (antibody)
# heavy: not shown
# light: B5 light
# B9: humanized variant of 4H11 (hu4H11), DFO immunoconjugate (antibody, V domains shown)
# VH: EVKLQESGGGFVKPGGSLRVSCAASGFTFSSYAMSWVRLAPEMRLEWVATISSAGGYIFYSDSVQGRFTISRDNAKNSLHLQMGSLRSGDTAMYYCARQGFGNYGDYYAMDYWGQGTTVTVSS
# VL: DIELTQSPSSLAVSAGERVTMNCKSSQSLLNSRTRKNQLAWYQQKPGQSPELLIYWASTRQSGVPDRFSGSGSGTDFTLTISSVQAEDVAVYYCQQSYNLLTFGPGTKLEIKR
# modifications: p-SCN-Bn-DFO on lysine epsilon-amines, ~1 DFO conjugated per antibody; 89Zr-labelled where named [^89Zr]Zr-DFO-hu4H11
# notes: both entries are variable regions (H1 and L1); Full-length antibody; also called DFO-hu4H11; [^89Zr]Zr-DFO-hu4H11
# Molecular target: T1, MUC16 peptide-2 glycopeptide
# Assay: SPR, BIAcore X100, peptide-2 glycopeptide over antibody captured by anti-IgG
# Description: Ligand capture was performed by flowing the humanized anti-Muc16 antibodies 18C6 H1L1, 18C6 H1L2, 18C6 H2L1, 18C6 H2L2) and the parental 18C6 mouse antibody onto the respective chips under saturating conditions. The MUC16 peptide-2 was then flowed over at the various test concentrations (150 nM, 75 nM, 37.5 nM, 18.8 nM, and 9.4 nM). The assay conditions used for measuring the effects of the glycopeptide were as follows: association time of 2 minutes, disassociation time of 10 min, and a flow rate of 30 μl per minute.
Kd [nM],koff [s⁻¹],kon [M⁻¹ s⁻¹],Binder
6.7,0.0019,287000,B1
8.7,0.0025,287000,B2
9.9,0.0054,549000,B3
9.2,0.004,433000,B4

# Molecular target: T2, biotinylated MUC16 peptide-2
# Assay: SPR, BIAcore X100, single cycle kinetics, antibody over captured biotinylated peptide-2
# Description: The relative binding affinities of 4H11 humanized antibodies (H1L1, H1L2, H2L1, H2L2) were compared by surface plasmon resonance using a BIACore-X100 instrument with a Biotin CAP Chip (GE Healthcare). The assay format consisted of capturing the biotinylated MUC16 peptide-2 ([…]; SEQ ID NO: 52) onto a streptavidin coated sensor and flowing over the antibody at various concentrations using single cycle kinetics. Ligand capture was performed by flowing 0.5 μg/ml of biotinylated MUC16 peptide-2 at a rate of 5 μl per minute for 65 seconds. The 4H11 humanized antibodies were then flowed over at the various test concentrations (150 nM, 75 nM, 37.5 nM, 18.8 nM, and 9.4 nM). The assay conditions used for measuring the effects of the added antibodies were as follows: association time of 2 minutes, disassociation time of 10 min, and a flow rate of 30 μl per minute.
Kd [nM],koff [s⁻¹],kon [M⁻¹ s⁻¹],Binder
1.57,0.000146,92700,B5
2.19,0.000198,90400,B6
2.37,0.000175,73800,B7
1.33,0.000101,76100,B8

# Molecular target: T3, MUC16 c114 expressed on transfected …
# Assay: flow cytometry, PE-Texas Red axis 10^0 to 10^5, secondary antibody detection; untransfected SKOV3 Cells + DFO-hu4H11 + Sec Ab lie with their controls below about 5 x 10^2
row,binding result,Binder
1,binds,B9

# Molecular target: T3, MUC16 c114 expressed on transfected …
# Assay: FACS, geometric mean PE fluorescence, SKOV3 c114 transfectant cells, mouse anti-human IgG1-Fc-PE detection; same antibody on vector control SKOV3 phrGFP about 200, secondary alone about 170
# Description: (§1) In a separate experiment, full-length humanized 4H11 antibodies (IgG1-Fc) comprising different combinations of humanized heavy and light chain variable regions of the 4H11 antibody were assayed. An anti-human IgG1-Fc-PE antibody was employed for fluorescent staining of MUC16-positive OVCAR3 or SKOV3 transfectant cells expressing MUC16 peptides. FIGS. 10A and 10B provide data for mean PE fluorescence and percentage PE positive cells for the 4H11 H1L1, H1L2, H2L1 and H2L2 antibodies assayed.
row,binding result,Binder
1,binds,B8

# Molecular target: T3, MUC16 c114 expressed on transfected …
# Assay: FACS, geometric mean PE fluorescence, SKOV3 c114 transfectant cells, mouse anti-human IgG1-Fc-PE detection; same antibody on vector control SKOV3 phrGFP about 170, at the level of secondary alone (about 170)
# Description: as §1
row,binding result,Binder
1,binds,B7
